Source: patent publication US9150638B2, “Factor XII inhibitors for treating interstitial lung disease” (Justus-Liebig-Universität Giessen, priority 2010, dated 2015)

Experiments:
FXII [1] = test: TGF-β1-induced FXII expression in HLF; type: cell-based, human; settings: for FXII expression in response to TGF-β1 (Western blot): HLF treated with inhibitor 1 h prior to TGF-β1 for 48 h
Experimental: Human lung specimens of the pulmonary parenchyma and mouse lungs were chopped into <1 mm^3 pieces. The minced pieces were washed twice with PBS and then plated in 100-mm dishes (Greiner-bio-one, Frickenhausen, Germany). The specimens were cultured with Dulbecco's modified Eagle's medium (DMEM; Invitrogen, Karlsruhe, Germany) supplemented with 10% fetal calf serum (FCS; HyClone, South Logan, UT), and 1% penicillin/streptomycin (Invitrogen) in humidified atmosphere of 5% CO2 at 37° C. Purity of isolated fibroblasts was verified by positive staining for vimentin, fibronectin and collagen IV. All experiments were carried out with lung fibroblasts from passages 3-4. The mouse NIH3T3 fibroblasts were cultured in DMEM supplemented with 10% FCS, and 1% penicillin/streptomycin in humidified atmosphere of 5% CO2 at 37° C.
(§1) Proteins separated on SDS polyacrylamide gel were transferred to a PVDF membrane (Amersham Biosciences, Freiburg, Germany) using wet transfer technique in transfer buffer (25 mM Tris, 192 mM Glycine, 20% (v/v) Methanol) for 1 h at 100V. After blocking with 5% non-fat dry milk in tris-buffered saline (TBS; 25 mM Tris-Cl, 150 mM NaCl, pH 7.5) containing 0.1% (v/v) Tween 20 (TBS-T), the membranes were incubated at 4° C. overnight with appropriate primary antibody diluted in 1% BSA in TBS-T. After 1 h incubation with peroxidase-labelled secondary antibody (all from Dako, Gostrup, Denmark) proteins were detected using ECL Plus Kit (Amersham Biosciences, Freiburg, Germany). To determine the amounts of protein loaded on the gel, blots were in 1 hour (stripping buffer: 100 mM Glycine, 1% HCl) and reprobed using an anti-β-actin or appropriate anti-pan antibody.
Pre-designed, commercially available siRNA sequences directed against human Smad 3 (Dharmacon, Chicago, Ill.), human JNK1 (Abnova, Heidelberg, Germany), and an universal negative-control siRNA (Ambion, Austin, Tex.) were employed. Cells were treated with siRNA (250 nM each) using the X-treme Gene siRNA Transfection Reagent (Roche). The siRNA-mediated downregulation of the target genes was assessed 72 h after transfection by Western blotting.

murine lung fibroblasts = test: Proliferation assay, [3H]-thymidine incorporation after FXIIa stimulation; type: cell-based; settings: for FXIIa-induced proliferation ([3H]-thymidine incorporation): added or preincubated 1-2 hours before FXIIa, 10.0 μM PD98059, 5 μM SP600125, 0.7 μM Wortmannin, 3 μM SB203580, blocking antibodies 5 μg/ml
Experimental: Human lung specimens of the pulmonary parenchyma and mouse lungs were chopped into <1 mm^3 pieces. The minced pieces were washed twice with PBS and then plated in 100-mm dishes (Greiner-bio-one, Frickenhausen, Germany). The specimens were cultured with Dulbecco's modified Eagle's medium (DMEM; Invitrogen, Karlsruhe, Germany) supplemented with 10% fetal calf serum (FCS; HyClone, South Logan, UT), and 1% penicillin/streptomycin (Invitrogen) in humidified atmosphere of 5% CO2 at 37° C. Purity of isolated fibroblasts was verified by positive staining for vimentin, fibronectin and collagen IV. All experiments were carried out with lung fibroblasts from passages 3-4. The mouse NIH3T3 fibroblasts were cultured in DMEM supplemented with 10% FCS, and 1% penicillin/streptomycin in humidified atmosphere of 5% CO2 at 37° C. The primary murine lung fibroblasts were seeded in 48-well plates and starved in serum free DMEM (Dulbecco's Modified Eagle's Medium) for 24 hours prior to FXIIa (American Diagnostica, Stamford, Conn.) stimulation. In some experiments cells were preincubated with 5 μg/ml anti-uPAR (R&D Systems, Wiesbaden, Germany), anti-β1-integrin or anti-α5-integrin (both from Millipore, Billerica, Mass.) blocking antibodies 1-2 hours before exposure to FXIIa. In addition in some experiment 10.0 μM PD98059, 5 μM SP600125, 0.7 μM Wortmannin, 3 μM SB203580 (all from Calbiochem, Darmstadt, Germany) were added to the cell culture medium 1-2 hours prior to the addition of FXIIa. Cells were treated with 3-9 μg/ml FXIIa alone or in the presence of its specific inhibitors: Corn Trypsin Inhibitor ([…]-chloromethylketone (PCK, Bachem, Weil am Rhein, Germany) or uPAR synthetic peptides. After 24-36 hours the cells were exposed to [3H]Thymidine (0.2 μCi per well) for 6-12 hours, rinsed three times with PBS and solubilized with 0.2 ml 0.5M sodium hydroxide. 0.1 ml of the solubilized material was quantified by liquid scintillation counting (TRI-CARB® 1500, A Canbera Company, Meriden, Conn.). [^3H]Thymidine incorporation was expressed as absolute radioactivity (counts per minute per well).

cyclin D1 = test: Immunoblot of cyclin D1 expression after FXIIa stimulation; type: cell-based, murine; settings: 6 hours after 6 μg/ml FXIIa stimulation
Experimental: as §1

Akt = test: Western blot of Akt phosphorylation after FXIIa exposure; type: cell-based, murine; settings: after 30 min of FXIIa exposure
Experimental: as §1

[2] = test system: bleomycin induced lung fibrosis; test: Bleomycin induced lung fibrosis in mice with intratracheal CTI
Source text: Male mice weighing between 20-22 g were used in all experiments. Animals were kept according to NIH guidelines and experiments were undertaken with permission of local authorities. The animals were anesthetized by intraperitoneal injection of a mixture of ketamine hydrochloride and xylazine hydrochloride. Bleomycin in dosis 5U/kg body weight was given as aerosol. For bleomycin delivery, animals were orotracheally intubated and mechanically ventilated. A microsprayer (Penn-Century Inc, Philadelphia, Pa.) was filled with 100 μl of saline solution containing bleomycin, introduced into the tracheal cannula, positioned slightly above the carina and aerosol generation was achieved under end-expiratory breath arrest by rapidly emptying the syringe. Controls mice received vehicle only (0.9% saline). 5 mg/kg CTI and 8 mg/kg PCK, both diluted in 0.9% saline, were administrated intratracheally on day 9, 12, 15 and 18 in dosis or of mouse body weight, respectively. The mice were sacrificed after 21 days post application (if not indicated in the text) with a lethal dose of ketamine and xylazine.
Mice were tracheotomised and ventilated in a volume driven mode at a positive end-expiratory pressure of 0 kPa. Respiration rate was set at 20 breaths·min^−1 and ventilation pressure was recorded while inflating the lung at a tidal volume of 200 μL.
After sacrifice of animals, the chest was opened and the lungs were flushed via a catheter that was placed into the pulmonary artery with PBS buffer. Once the effluent was clear of blood, lungs were removed and placed in paraformaldehyde or nitrogen for further examination. For cells isolation lungs were placed in PBS buffer.
Paraffin-embedded, formalin-fixed lung tissue was sectioned at 5 microns and processed for immunohistochemical staining using appropriate primary antibody and ZytoChem Plus AP-Fast Red Kit according to the manufacturer's instructions (Zytomed Systems, Berlin, Germany). Negative controls were obtained in all cases by omitting the primary antibody.

p44/42 = test: Western blot of p44/42 phosphorylation after FXIIa exposure; type: cell-based, murine; settings: after 30 min of FXIIa exposure
Experimental: as §1

FXII [3] = target: T1, FXII (Homo sapiens, UniProt P00748); test: FXII activity assay using chromogenic substrate, BALF from IPF patients; type: biochemical
T1 construct: increased enzymatic activity FXII in broncholaveolar lavage fluid (BALF) from IPF patients; from tissue; host or cells: bronchoalveolar lavage fluid (BALF) of IPF patients and donors
T1 sequence (P00748 20-615): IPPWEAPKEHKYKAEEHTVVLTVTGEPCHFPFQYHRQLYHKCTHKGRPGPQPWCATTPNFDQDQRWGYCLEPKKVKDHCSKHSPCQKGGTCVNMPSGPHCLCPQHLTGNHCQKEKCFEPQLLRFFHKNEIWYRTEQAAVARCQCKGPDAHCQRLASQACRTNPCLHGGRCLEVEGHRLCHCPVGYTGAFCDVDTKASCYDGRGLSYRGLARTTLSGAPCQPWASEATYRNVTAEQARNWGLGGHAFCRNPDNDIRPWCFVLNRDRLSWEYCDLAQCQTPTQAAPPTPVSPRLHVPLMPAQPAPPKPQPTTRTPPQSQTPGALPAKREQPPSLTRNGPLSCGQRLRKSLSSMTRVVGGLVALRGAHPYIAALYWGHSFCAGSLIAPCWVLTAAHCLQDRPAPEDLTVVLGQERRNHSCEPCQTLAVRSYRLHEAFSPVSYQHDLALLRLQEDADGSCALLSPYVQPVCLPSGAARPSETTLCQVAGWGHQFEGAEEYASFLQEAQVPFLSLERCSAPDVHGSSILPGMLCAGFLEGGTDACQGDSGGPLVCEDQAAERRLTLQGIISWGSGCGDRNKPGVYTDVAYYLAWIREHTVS
Source text: A test for determining the catalytic activity of FXIIa is described in Kannemeier C, Shibamiya A, Nakazawa F, Trusheim H, Ruppert C, Markart P, Song Y, Tzima E, Kennerknecht E, Niepmann M, Bruehl M L, Sedding D, Massberg S, Gunther A, Engelmann B, Preissner K T. Extracellular RNA constitutes a natural procoagulant cofactor in blood coagulation. Proc Natl Acad Sci USA. 104:6388-6393, 2007. Briefly, the FXIIa-sample and a chromogenic substrate peptide is mixed, and the release of p-nitroanilin is followed over time in a photometer at 405 nm. A compound is suitable as an inhibitor of the catalytic, in particular the enzymatic activity of FXIIa if it is capable of reducing the catalytic activity in that assay in a significant manner, preferably by at least 10%, more preferably by at least 25%, most preferably by at least 50% such as at least 75% or even at least 90%.

[4] = FIG. 25D,E, bleomycin application
[5] = day 21 after bleomycin, CTI 5 mg/kg intratracheally
[6] = saline control animals which received CTI

Molecule: TGF-β1: cytokine (R&D Systems) used at 10 ng/ml to stimulate cells
- synthesis of FXII in HLF (FXII [1]; exposure to 10 ng/ml TGF-β1): stimulated the synthesis of FXII in a time dependent manner

Molecule: C[S+]([O-])c1ccc(-c2nc(-c3ccncc3)c(-c3ccc(F)cc3)[nH]2)cc1 (stereo not drawn) [SB203580, reference compound]
- FXII expression in response to TGF-β1 (Western blot) (FXII [1]): No change in FXII expression
- FXIIa-induced proliferation ([3H]-thymidine incorporation) (murine lung fibroblasts): No change in DNA sythesis

Molecule: COc1cccc(-c2cc(=O)c3ccccc3o2)c1N [PD98059, reference compound]
- FXII expression in response to TGF-β1 (Western blot) (FXII [1]): No change in FXII expression
- FXIIa-induced proliferation ([3H]-thymidine incorporation) (murine lung fibroblasts): reduction of murine lung fibroblasts proliferation

B1: FXIIa: activated factor XII (American Diagnostica) used to stimulate fibroblasts (protein)
chain: IPPWEAPKEHKYKAEEHTVVLTVTGEPCHFPFQYHRQLYHKCTHKGRPGPQPWCATTPNFDQDQRWGYCLEPKKVKDHCSKHSPCQKGGTCVNMPSGPHCLCPQHLTGNHCQKEKCFEPQLLRFFHKNEIWYRTEQAAVARCQCKGPDAHCQRLASQACRTNPCLHGGRCLEVEGHRLCHCPVGYTGAFCDVDTKASCYDGRGLSYRGLARTTLSGAPCQPWASEATYRNVTAEQARNWGLGGHAFCRNPDNDIRPWCFVLNRDRLSWEYCDLAQCQTPTQAAPPTPVSPRLHVPLMPAQPAPPKPQPTTRTPPQSQTPGALPAKREQPPSLTRNGPLSCGQRLRKSLSSMTRVVGGLVALRGAHPYIAALYWGHSFCAGSLIAPCWVLTAAHCLQDRPAPEDLTVVLGQERRNHSCEPCQTLAVRSYRLHEAFSPVSYQHDLALLRLQEDADGSCALLSPYVQPVCLPSGAARPSETTLCQVAGWGHQFEGAEEYASFLQEAQVPFLSLERCSAPDVHGSSILPGMLCAGFLEGGTDACQGDSGGPLVCEDQAAERRLTLQGIISWGSGCGDRNKPGVYTDVAYYLAWIREHTVS
- DNA synthesis ([3H]-thymidine incorporation) after FXIIa treatment (murine lung fibroblasts; increasing concentration of FXIIa): dose-dependent increase
- cyclin D expression (cyclin D1): increased

B2: CTI: Corn Trypsin Inhibitor, a specific FXII activity inhibitor (Calbiochem) (protein)
chain: SAGTSCVPGWAIPHNPLPSCRWYVTSRTCGIGPRLPWPELKRRCCRELADIPAYCRCTALSILMDGAIPPGPDAQLEGRLEDLPGCPREVQRGFAATLVTEAECNLATIS
- Akt phosphorylation (Akt): attenuated
- FXIIa-induced proliferation ([3H]-thymidine incorporation) (murine lung fibroblasts): blocked
- lung remodelling and collagen deposition ([2]; FIG. 25A, bleomycin-treated mice): largely protected against lung remodelling and collagen deposition
- survival curves (Kaplan-Meier plot) ([2]; FIG. 25B, bleomycin-treated mice): significantly protected
- increase in collagen content [2, 4]: significantly prevented
- increase in septum thickness [2, 4]: significantly prevented
- collagen accumulation (Masson-Trichrom staining) [2, 5]: markedly reduced
- histologic findings in the lungs (fibrotic lesions) [2, 5]: less fibrotic lesions
- lung compliance ([2]; day 21 after bleomycin, CTI 5 mg/kg intratracheally at day 9, 12, 15 and 18): significantly improved
- mortality ([2]; day 21 post bleomycin challenge, CTI 5 mg/kg intratracheally at day 9, 12, 15 and 18): 20%
- histological changes in the lung [2, 6]: no histological changes in the lung
- inflammatory cells infiltration into airspaces [2, 6]: mild degree of inflammatory cells infiltration into airspaces
- p44/42 phosphorylation (p44/42): attenuated
- FXII activity (chromogenic substrate) (FXII [3]): blockade of FXII activity
